Results from patent publication US20230212319A1, “NOVEL ANTIGEN BINDING DOMAINS AND SYNTHETIC ANTIGEN RECEPTORS INCORPORATING THE SAME” (University of Southern California, priority 2020, published 2023).
“Also recorded” adds a separate entry of the source.

B1: 22225 (protein)
chain: MALPVTALLLPLALLLHAARPDIQMTQSPSSLSASVGDRVTITCKASDHINNWLAWYQQKPGQAPKLLIYGATTLETGVPSRFSGSGSGTDYTLTISSLQPEDFATYYCQQSWNTPWTFGQGTKLEIKRLEDLKNVFPPEVAVFEPSEAEISHTQKATLVCLATGFYPDHVELSWWVNGKEVHSGVCTDPQPLKEQPALNDSRYCLSSRLRVSATFWQNPRNHFRCQVQFYGLSENDEWTQDRAKPVTQIVSAEAWGRADCGFTSESYQQGVLSATILYEILLGKATLYAVLVSALVLMAMVKRKDSRGRAKRSGSGATNFSLLKQAGDVEENPGPTSATMDWIWRILFLVGAATGAHSGPEVQLVESGGGLVQAGGSLRLSCAASGRTFTMGWFRQAPGKEREFVAAISLSPTLAYYADSVKGRFTISRDNAKNTVVLQMNSLKPEDTALYYCAADRKSVMSIRPDYWGQGTQVTVSSGSGPLGIAGIFEQVQLQQPGAELVKPGASVKMSCKASGYAFSSYWINWMKQKPGQGLEWIGQIYPGDGDTNYNGKFKGRATLTADTSSSTAYMQLSSLTSEDSAVYFCARSITTVVGCAMDYWGQGTSVTVSSTRIQNPDPAVYQLRDSKSSDKSVCLFTDFDSQTNVSQSKDSDVYITDKCVLDMRSMDFKSNSAVAWSNKSDFACANAFNNSIIPEDTFFPSPESSCDVKLVEKSFETDTNLNFQNLSVIGFRILLLKVAGFNLLMTLRLWSSRAKRSGSGVKQTLNFDLLKLAGDVESNPGPSRGHMTEYKPTVRLATRDDVPRAVRTLAAAFADYPATRHTVDPDRHIERVTELQELFLTRVGLDIGKVWVADDGAAVAVWTTPESVEAGAVFAEIGPRMAELSGSRLAAQQQMEGLLAPHRPKEPAWFLATVGVSPDHQGKGLGSAVVLPGVEAAERAGVPAFLETSAPRNLPFYERLGFTVTADVEVPEGPRTWCMTRKPGA
B2: 22250 (protein)
chain: B1 chain
B3: 9694 (protein)
chain: MALPVTALLLPLALLLHAARPDIVMTQSHKFMSTSVGDRVSIICKASQDVGTAVDWYQQKPGQSPKLLIYWASTRHTGVPDRFTGSGSGTDFTLAITNVQSEDLADYFCQQYNSYPLTFGAGTKLEIKRLEDLKNVFPPEVAVFEPSEAEISHTQKATLVCLATGFYPDHVELSWWVNGKEVHSGVCTDPQPLKEQPALNDSRYCLSSRLRVSATFWQNPRNHFRCQVQFYGLSENDEWTQDRAKPVTQIVSAEAWGRADCGFTSESYQQGVLSATILYEILLGKATLYAVLVSALVLMAMVKRKDSRGRAKRSGSGATNFSLLKQAGDVEENPGPTSMDWIWRILFLVGAATGAHSFEEVQLQQSGPELVKPGTSVRISCKTSGYTFTEYTIHWVKQSHGKSLEWIGNINPNNGGTTYNQKFEDKATLTVDKSSSTAYMELRSLTSEDSAVYYCAAGWNFDYWGQGTTLTVSSTRIQNPDPAVYQLRDSKSSDKSVCLFTDFDSQTNVSQSKDSDVYITDKCVLDMRSMDFKSNSAVAWSNKSDFACANAFNNSIIPEDTFFPSPESSCDVKLVEKSFETDTNLNFQNLSVIGFRILLLKVAGFNLLMTLRLWSS
modifications: Synthetic Polynucloetide
B4: 9832 (protein)
chain: MALPVTALLLPLALLLHAARPDIQMTQSPSSLSASVGDRVTITCKASQDVGTAVDWYQQKPGKAPKLLISWASTRHTGVPSRFSGSGSGTDFTLTISSLQPEDFATYFCQQYNSYPLTFGQGTKVEIKRTVLEDLKNVFPPEVAVFEPSEAEISHTQKATLVCLATGFYPDHVELSWWVNGKEVHSGVCTDPQPLKEQPALNDSRYCLSSRLRVSATFWQNPRNHFRCQVQFYGLSENDEWTQDRAKPVTQIVSAEAWGRADCGFTSESYQQGVLSATILYEILLGKATLYAVLVSALVLMAMVKRKDSRGRAKRSGSGATNFSLLKQAGDVEENPGPTSMDWIWRILFLVGAATGAHSFEQVQLVQSGAEVKKPGESVKVSCKASGYTFTEYTIHWVRQAPGQGLEWMGNINPNNGGTTYNQKFEDRVTITADKSTSTAYMELSSLRSEDTAVYYCARGWNFDYWGQGTTVTVSSTRIQNPDPAVYQLRDSKSSDKSVCLFTDFDSQTNVSQSKDSDVYITDKCVLDMRSMDFKSNSAVAWSNKSDFACANAFNNSIIPEDTFFPSPESSCDVKLVEKSFETDTNLNFQNLSVIGFRILLLKVAGFNLLMTLRLWSS
modifications: Synthetic Polynucloetide
B5: 9901 (protein)
chain: MALPVTALLLPLALLLHAARPDIQMTQSPSSLSASVGDRVTITCKASQDVGTAVDWYQQKPGKAPKLLIYWASTRHTGVPSRFSGSGSGTDFTLTISSLQPEDFATYYCQQYNSYPLTFGQGTKVEIKRLEDLKNVFPPEVAVFEPSEAEISHTQKATLVCLATGFYPDHVELSWWVNGKEVHSGVCTDPQPLKEQPALNDSRYCLSSRLRVSATFWQNPRNHFRCQVQFYGLSENDEWTQDRAKPVTQIVSAEAWGRADCGFTSESYQQGVLSATILYEILLGKATLYAVLVSALVLMAMVKRKDSRGRAKRSGSGATNFSLLKQAGDVEENPGPTSMDWIWRILFLVGAATGAHSFEEVQLQQSGPELVKPGTSVRISCKTSGYTFTEYTIHWVKQSHGKSLEWIGNINPNNGGTTYNQKFEDKATLTVDKSSSTAYMELRSLTSEDSAVYYCAAGWNFDYWGQGTTLTVSSTRIQNPDPAVYQLRDSKSSDKSVCLFTDFDSQTNVSQSKDSDVYITDKCVLDMRSMDFKSNSAVAWSNKSDFACANAFNNSIIPEDTFFPSPESSCDVKLVEKSFETDTNLNFQNLSVIGFRILLLKVAGFNLLMTLRLWSS
modifications: Synthetic Polynucloetide
B6: 9762 (protein)
chain: MALPVTALLLPLALLLHAARPDIQMTQSPSSLSASVGDRVTITCKASQDVGTAVDWYQQKPGKAPKLLIYWASTRHTGVPSRFSGSGSGTDFTLTISSLQPEDFATYYCQQYNSYPLTFGQGTKVEIKRLEDLKNVFPPEVAVFEPSKAEIAHTQKATLVCLATGFYPDHVELSWWVNGKEVHSGVCTDPQPLKEQPALNDSRYCLSSRLRVSATFWQNPRNHFRCQVQFYGLSENDEWTQDRAKPVTQIVSAEAWGRADCGITSASYHQGVLSATILYEILLGKATLYAVLVSALVLMAMVKRKDSRGRAKRSGSGATNFSLLKQAGDVEENPGPTSMDWIWRILFLVGAATGAHSFEEVQLVESGGGLVQPGGSLRLSCAASGYTFTEYTIHWVRQAPGKGLEWVANINPNNGGTTYNQKFEDRFTISRDNSKNTLYLQMNSLRAEDTAVYYCARGWNFDYWGQGTLVTVSSTRIQNPDPAVYQLRDSKSSDKSVCLFTDFDSQTNVSQSKDSDVYITDKCVLDMRSMDFKSNSAVAWSNKSDFACANAFNNSIIPEDTFFPSSDVPCDVKLVEKSFETDTNLNFQNLSVIGFRILLLKVAGFNLLMTLRLWSSRAKRSGSGVKQTLNFDLLKLAGDVESNPGPSRGHMTEYKPTVRLATRDDVPRAVRTLAAAFADYPATRHTVDPDRHIERVTELQELFLTRVGLDIGKVWVADDGAAVAVWTTPESVEAGAVFAEIGPRMAELSGSRLAAQQQMEGLLAPHRPKEPAWFLATVGVSPDHQGKGLGSAVVLPGVEAAERAGVPAFLETSAPRNLPFYERLGFTVTADVEVPEGPRTWCMTRKPGA
modifications: Synthetic Polynucloetide
B7: 9763 (protein)
chain: MALPVTALLLPLALLLHAARPDIQMTQSPSSLSASVGDRVTITCKASQDVGTAVDWYQQKPGKAPKLLIYWASTRHTGVPSRFSGSGSGTDFTLTISSLQPEDFATYYCQQYNSYPLTFGQGTKVEIKRLEDLKNVFPPEVAVFEPSEAEISHTQKATLVCLATGFYPDHVELSWWVNGKEVHSGVCTDPQPLKEQPALNDSRYCLSSRLRVSATFWQNPRNHFRCQVQFYGLSENDEWTQDRAKPVTQIVSAEAWGRADCGFTSESYQQGVLSATILYEILLGKATLYAVLVSALVLMAMVKRKDSRGRAKRSGSGATNFSLLKQAGDVEENPGPTSMDWIWRILFLVGAATGAHSFEEVQLVESGGGLVQPGGSLRLSCAASGYTFTEYTIHWVRQAPGKGLEWVANINPNNGGTTYNQKFEDRFTISRDNSKNTLYLQMNSLRAEDTAVYYCARGWNFDYWGQGTLVTVSSTRIQNPDPAVYQLRDSKSSDKSVCLFTDFDSQTNVSQSKDSDVYITDKCVLDMRSMDFKSNSAVAWSNKSDFACANAFNNSIIPEDTFFPSPESSCDVKLVEKSFETDTNLNFQNLSVIGFRILLLKVAGFNLLMTLRLWSS
modifications: Synthetic Polynucloetide

Tests used:
RAJI-CD19-KO cells = test: JNG assay, co-culture with RAJI-CD19-KO cells; type: cell-based; details: co-culture with Raji-CD19-KO
Summary of the method: (§1)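 Jurkat-NFAT-GFP (JNG) cells stably expressing SAR constructs via lentiviral transduction and puromycin/blasticidin selection were cocultured with target cells at E:T ~1:2 for ~4–18 h. NFAT-driven GFP was measured by FACS versus parental JNG cells; scores +/- to 5+ denote ~5–50% GFP-positive cells.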

L363 cells = test: JNG assay, co-culture with L363 cells; type: cell-based; details: co-culture with L363
Summary of the method: as §1

Nalm6 cells = test: JNG assay, co-culture with Nalm6 cells; type: cell-based; details: co-culture with Nalm6
Summary of the method: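 Drug-selected populations of SAR-expressing Jurkat-NFAT-GFP cells meet target cells (about 1:2 E:T) for roughly 4–18 h. Flow cytometry gives % GFP+ cells, graded +/- to 5+ (≈5% to ≈50%) relative to the parental control.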

RS;411 = test: JNG assay, co-culture with RS;411 cells; type: cell-based; details: co-culture with RS411
Summary of the method: as §1

U266 cells = test: JNG NFAT-GFP induction on co-culture with U266; type: cell-based
LNCaP-LucPPe cells = test: LNCaP-LucPPE xenograft in NSG mice, with rechallenge; type: in vivo; details: for tumor control (bioluminescence imaging, caliper tumor volume), LNCaP-LucPPE xenograft: 1 × 10^6 LNCaP-LucPPe s.c., 17 days later 3 × 10^6 T cells i.v., male NSG mice; for survival, LNCaP-LucPPE xenograft: mouse, in vivo

Row | Molecule | NFAT-GFP ASSAY: Raji-CD19-KO (RAJI-CD19-KO cells) | NFAT-GFP ASSAY: L363 (L363 cells) | NFAT-GFP ASSAY: Nalm6 (Nalm6 cells) | NFAT-GFP ASSAY: RS411 (RS;411) | NFAT-GFP ASSAY: U266 (U266 cells) | tumor control (bioluminescence imaging, caliper tumor volume), LNCaP-LucPPE xenograft (LNCaP-LucPPe cells) | survival, LNCaP-LucPPE xenograft (LNCaP-LucPPe cells)
1 | B1 | 4+ (refer to approximately 5%, 10%, 20%, 30%, 40% and 50% GFP positive cells) | 3+ (refer to approximately 5%, 10%, 20%, 30%, 40% and 50% GFP positive cells) | 3+ (refer to approximately 5%, 10%, 20%, 30%, 40% and 50% GFP positive cells) | 2+ (refer to approximately 5%, 10%, 20%, 30%, 40% and 50% GFP positive cells) | 5+ (refer to approximately 5%, 10%, 20%, 30%, 40% and 50% GFP positive cells) | – | –
2 | B2 | 4+ (refer to approximately 5%, 10%, 20%, 30%, 40% and 50% GFP positive cells) | 3+ (refer to approximately 5%, 10%, 20%, 30%, 40% and 50% GFP positive cells) | 3+ (refer to approximately 5%, 10%, 20%, 30%, 40% and 50% GFP positive cells) | 2+ (refer to approximately 5%, 10%, 20%, 30%, 40% and 50% GFP positive cells) | 5+ (refer to approximately 5%, 10%, 20%, 30%, 40% and 50% GFP positive cells) | – | –
3 | B3 | – | – | – | – | – | effective control of tumor | improvement in survival
4 | B4 | – | – | – | – | – | effective control of tumor | improvement in survival
5 | B5 | – | – | – | – | – | effective control of tumor; also recorded: statistically significant and effective tumor control | improvement in survival
6 | B6 | – | – | – | – | – | statistically significant and effective tumor control | –
7 | B7 | – | – | – | – | – | effective control of tumor | improvement in survival
